# Reference: paper PMC10762086, “Non-canonical interplay between glutamatergic NMDA and dopamine receptors shapes synaptogenesis” (Nature Communications, 2024)
# B1: dopamine receptor 1 wild-type (D1R-wt), extracellularly tagged, expressed in hippocampal neurons (receptor, UniProt P18901 1-446, looked up)
# chain: MAPNTSTMDEAGLPAERDFSFRILTACFLSLLILSTLLGNTLVCAAVIRFRHLRSKVTNFFVISLAVSDLLVAVLVMPWKAVAEIAGFWPLGPFCNIWVAFDIMCSTASILNLCVISVDRYWAISSPFQYERKMTPKAAFILISVAWTLSVLISFIPVQLSWHKAKPTWPLDGNFTSLEDTEDDNCDTRLSRTYAISSSLISFYIPVAIMIVTYTSIYRIAQKQIRRISALERAAVHAKNCQTTAGNGNPVECAQSESSFKMSFKRETKVLKTLSVIMGVFVCCWLPFFISNCMVPFCGSEETQPFCIDSITFDVFVWFGWANSSLNPIIYAFNADFQKAFSTLLGCYRLCPTTNNAIETVSINNNGAVVFSSHHEPRGSISKDCNLVYLIPHAVGSSEDLKKEEAGGIAKPLEKLSPALSVILDYDTDVSLEKIQPVTHSGQHST
# notes: dopamine D1 receptor; also called dopamine D1 receptor; source: cultured rat hippocampal neurons, transfected (calcium phosphate), on live cells; not shown: extracellular tag (GFP or Flag)
# Target: GluN1 subunit-containing NMDAR (GluN1-NMDAR), tagged GluN1 expressed at the surface of hippocampal neurons (UniProt P35439 19-938, Only the defined, expressed GluN1 subunit is built: it carries the D1R interaction through its C1 cassette. The canonical 938-aa form is taken as the C1-containing GluN1-1a; the exact splice form is n)
# Assay: multidimensional spectral single molecule localization microscopy (MS-SMLM; two-colour quantum-dot single-particle tracking); live cultured hippocampal neurons (immature DIV 7-9; mature DIV 15 and above), surface receptors labelled by antibodies against extracellular tags and Qd-655 / Qd-705; 1000 frames of 50 ms (20 Hz), 37 °C; receptors counted as interacting when their distance fell below 100 nm; Koff estimated …
# Details: partners not purified
binder,measurement,value
B1,koff,13 ± 0.7 s⁻¹
